These results are taken from publication PMC4599343 (Archives of biochemistry and biophysics, 2015).

For orientation: IC50 means the concentration needed to halve the response being measured. A high value points to a need for much substance. As usually defined, the Km is the concentration of substrate that gives half-maximal velocity. Usually kcat stands for the maximal rate divided by the concentration of active sites. In general, kcat/Km refers to the second-order rate constant that governs catalysis at low substrate concentration.

Data set [1] concerns the target T1, CYP2B6 (Homo sapiens, UniProt P20813, K262R/Y226H).
T1 sequence (P20813 29-491 Y226H/K262R): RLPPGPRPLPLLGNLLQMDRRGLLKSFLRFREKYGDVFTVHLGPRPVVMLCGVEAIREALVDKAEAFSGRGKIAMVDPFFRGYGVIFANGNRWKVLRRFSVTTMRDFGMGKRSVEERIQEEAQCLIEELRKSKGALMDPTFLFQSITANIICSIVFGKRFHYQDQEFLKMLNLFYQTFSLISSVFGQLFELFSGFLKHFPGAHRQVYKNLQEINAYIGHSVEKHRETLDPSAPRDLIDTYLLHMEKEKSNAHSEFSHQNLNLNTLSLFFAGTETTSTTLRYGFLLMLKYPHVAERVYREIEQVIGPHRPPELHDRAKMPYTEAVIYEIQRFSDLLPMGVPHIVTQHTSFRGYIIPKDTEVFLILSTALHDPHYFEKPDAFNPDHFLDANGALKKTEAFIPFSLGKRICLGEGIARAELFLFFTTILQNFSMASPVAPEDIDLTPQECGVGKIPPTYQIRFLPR
Briefly: biochemical.

Data set [2] deals with T2, CYP2B6 (Homo sapiens, UniProt P20813, Y226H/K262R).
T2 sequence (P20813 29-491 Y226H/K262R): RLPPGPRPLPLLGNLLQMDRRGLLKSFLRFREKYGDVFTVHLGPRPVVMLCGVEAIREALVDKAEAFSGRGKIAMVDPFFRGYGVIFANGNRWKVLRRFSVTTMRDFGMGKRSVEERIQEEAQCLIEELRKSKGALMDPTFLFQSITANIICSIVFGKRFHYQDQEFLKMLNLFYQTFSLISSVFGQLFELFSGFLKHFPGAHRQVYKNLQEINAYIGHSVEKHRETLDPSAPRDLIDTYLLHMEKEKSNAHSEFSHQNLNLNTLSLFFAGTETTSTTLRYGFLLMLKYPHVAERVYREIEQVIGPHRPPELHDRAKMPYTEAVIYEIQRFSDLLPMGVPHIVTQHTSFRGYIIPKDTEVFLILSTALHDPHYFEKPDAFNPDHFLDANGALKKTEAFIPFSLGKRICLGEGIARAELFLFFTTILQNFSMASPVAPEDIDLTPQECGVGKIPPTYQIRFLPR
It counts as biochemical. Particulars: reconstituted purified enzyme.

Substrate in data set [3]: O=c1ccc2nc3ccc(OCc4ccccc4)cc3oc-2c1
Kind of data set: steady-state O-debenzylation kinetics, reconstituted purified enzyme. Particulars: heme. It counts as biochemical, Oryctolagus cuniculus.

Substrate in data set [4]: CCOc1ccc2c(C(F)(F)F)cc(=O)oc2c1
Kind of data set: steady-state O-deethylation kinetics, reconstituted purified enzyme. The format is biochemical, Oryctolagus cuniculus. The following applies: heme.

Take `OC[C@H]1O[C@H](O[C@H]2[C@H](O)[C@@H](O)[C@H](OCCCCCC3CCCCC3)O[C@@H]2CO)[C@H](O)[C@@H](O)[C@@H]1O` [CYMAL-5, 5-cyclohexyl-1-pentyl-β-D-maltoside]: the half-inhibitory concentration (IC50) against CYP2B6 [1] turned out to be 739 ± 42.5 µM.

As for `CCOc1ccc2c(C(F)(F)F)cc(=O)oc2c1` [7-EFC, 7-ethoxy-4-(trifluoromethyl)coumarin], the Km at CYP2B6 [2] worked out at 6.2 ± 0.6 µM.

B1: CYP2B4 (Oryctolagus cuniculus; H226Y) (protein)
chain: GRLPPGPSPLPVLGNLLQMDRKGLLRSFLRLREKYGDVFTVYLGSRPVVVLCGTDAIREALVDQAEAFSGRGKIAVVDPIFQGYGVIFANGERWRALRRFSLATMRDFGMGKRSVEERIQEEARCLVEELRKSKGALLDNTLLFHSITSNIICSIVFGKRFDYKDPVFLRLLDLFFQSFSLISSFSSQVFELFPGFLKYFPGTHRQIYRNLQEINTFIGQSVEKHRATLDPSNPRDFIDVYLLRMEKDKSDPSSEFHHQNLILTVLSLFFAGTETTSTTLRYGFLLMLKYPHVTERVQKEIEQVIGSHRPPALDDRAKMPYTDAVIHEIQRLGDLIPFGVPHTVTKDTQFRGYVIPKNTEVFPVLSSALHDPRYFETPNTFNPGHFLDANGALKRNEGFMPFSLGKRICLGEGIARTELFLFFTTILQNFSIASPVPPEDIDLTPRESGVGNVPPSYQIRFLAR
As to B1, in data set [3], the Km was 1.03 ± 0.22 µM, the turnover number (kcat) was determined as 0.03267 ± 0.000167 s⁻¹ and the kcat/Km worked out at 31700 M⁻¹ s⁻¹. In data set [4], the Km worked out at 28.4 ± 7.6 µM, the kcat is 0.123 ± 0.0217 s⁻¹ and the catalytic efficiency (kcat/Km) was found to be 4330 M⁻¹ s⁻¹.
